One experiment concerns the target HLA-A*68:23. The experiment in a line: IEDB peptide-MHC binding, purified MHC/competitive/fluorescence; filed as Kd, often an IC50 or EC50 that approximates it; ≥ and ≤ were set here for values at or beyond the usual limits of such assays. Conditions: source organism: human gammaherpesvirus 4.
The next experiment concerns the target HLA-B*15:42. Described as above. Conditions: source organism: human gammaherpesvirus 4.
The target in a further experiment is HLA-C*14:02. The description is as above. Conditions: source organism: human gammaherpesvirus 4.
A further experiment concerns the target HLA-B*83:01. Described as above. Conditions: source organism: human gammaherpesvirus 4.
For a further experiment, the target named is HLA-B*45:06. Described as above. Conditions: source organism: human gammaherpesvirus 4.
The target of another experiment is HLA-A*69:01. Described as above.
A further experiment concerns the target HLA-B*35:01. The experiment is described as above. Conditions: source organism: Orthohantavirus khabarovskense.
For another experiment, the target named is HLA-B*18:01. The experiment is described as above. To be noted: source organism: Orthohantavirus khabarovskense.
Another experiment deals with HLA-B*39:01. The experiment is described as above.
For another experiment, the target named is HLA-B*46:01. The experiment is described as above.
Experiment [1] addresses HLA-A*26:01. The description is as above. Conditions: source organism: Orthohantavirus khabarovskense.
The target of a further experiment is HLA-B*27:03. The experiment is described as above.
In a further experiment the target is HLA-A*02:19. The experiment in a line: IEDB peptide-MHC binding, purified MHC/direct/fluorescence; filed as Kd, often an IC50 or EC50 that approximates it; ≥ and ≤ were set here for values at or beyond the usual limits of such assays.
The target in another experiment is HLA-C*03:03. The experiment is described as above. To be noted: source organism: Orthohantavirus khabarovskense.
The target in the next experiment is HLA-A*03:01. The experiment is described as above.
A further experiment concerns the target HLA-C*08:02. The description is as above.
Another experiment concerns the target HLA-A*68:02. Described as above.
The next experiment addresses HLA-C*12:03. Described as above. To be noted: source organism: Orthohantavirus khabarovskense.
The next experiment addresses HLA-B*58:01. The experiment is described as above. To be noted: source organism: Orthohantavirus andesense.
The target in a further experiment is HLA-A*02:03. The description is as above.
The next experiment has as its target HLA-A*02:12. The description is as above.
The next experiment addresses HLA-A*23:01. The description is as above. Conditions: source organism: Choclo virus.
The target in experiment [2] is HLA-A*01:01. Described as above. Conditions: source organism: Orthohantavirus andesense.
The next experiment concerns the target HLA-A*24:03. The description is as above.
The next experiment addresses HLA-B*15:01. The experiment in a line: IEDB peptide-MHC binding, purified MHC/competitive/fluorescence; ≥ and ≤ were set here for values at or beyond the usual limits of such assays. Conditions: source organism: Sudan ebolavirus.
For experiment [3], the target named is HLA-A*02:01. Described as above. Conditions: source organism: Sudan ebolavirus.
Experiment [4] deals with HLA-A*01:01. Described as above. To be noted: source organism: Sudan ebolavirus.
Another experiment has as its target HLA-B*57:01. The experiment in a line: IEDB peptide-MHC binding, purified MHC/competitive/fluorescence; filed as Kd, often an IC50 or EC50 that approximates it; ≥ and ≤ were set here for values at or beyond the usual limits of such assays. Conditions: source organism: Sudan ebolavirus.
The target of experiment [5] is HLA-A*02:01. Described as above. Conditions: source organism: Sudan ebolavirus.
A further experiment has as its target HLA-B*51:01. The description is as above. Conditions: source organism: Sudan ebolavirus.
The target of a further experiment is HLA-A*02:11. The experiment in a line: IEDB peptide-MHC binding, purified MHC/direct/fluorescence; filed as Kd, often an IC50 or EC50 that approximates it; ≥ and ≤ were set here for values at or beyond the usual limits of such assays. Conditions: source organism: Sudan ebolavirus.
Another experiment addresses HLA-A*02:16. The experiment is described as above. Conditions: source organism: Sudan ebolavirus.
The target of experiment [6] is HLA-A*26:01. Described as above. To be noted: source organism: Sudan virus - Boniface, Sudan,1976.
[7] abbreviates: source organism: Orthohantavirus khabarovskense.
Where [8] appears, read: source organism: Sudan ebolavirus.

In general, Kd refers to the concentration at which binding is half-saturated. Higher therefore signals weaker binding. By IC50 is commonly meant the point on the concentration scale where inhibition reaches its midpoint.

For YTGAMTSKF, the dissociation constant Kd with HLA-A*68:23 was 0.0715 µM; in the experiment with HLA-B*15:42 it was at least 5 µM; with HLA-C*14:02, 0.394 µM; with HLA-B*83:01 it was at least 5 µM; with HLA-B*45:06, at least 5 µM.

Regarding FSLPSSSSY, the Kd is at least 20 µM with HLA-A*69:01 (setting [7]); at most 0.0001 µM with HLA-B*35:01; at least 20 µM in the experiment with HLA-B*18:01; at least 20 µM with HLA-B*39:01 (setting [7]); 0.0707 µM with HLA-B*46:01 (setting [7]); at least 20 µM with HLA-A*26:01 [1]. Also, the dissociation constant Kd with HLA-B*27:03 (setting [7]) is at least 20 µM; with HLA-A*02:19 (source organism: Choclo virus), at least 20 µM; with HLA-C*03:03 it was 0.028 µM; with HLA-A*03:01 (source organism: Choclo virus), at least 20 µM; in the experiment with HLA-C*08:02 (setting [7]) it was at least 20 µM; with HLA-A*68:02 (source organism: Choclo virus) it was at least 20 µM. The dissociation constant (Kd) was 0.043 µM in the experiment with HLA-C*12:03; 0.0218 µM with HLA-B*58:01; at least 20 µM in the experiment with HLA-A*02:03 (source organism: Choclo virus); at least 20 µM with HLA-A*02:12 (source organism: Choclo virus); at least 20 µM with HLA-A*23:01; 0.377 µM in the experiment with HLA-A*01:01 [2]. This sequence gave a dissociation constant (Kd) in the experiment with HLA-A*24:03 (source organism: Choclo virus) of at least 20 µM.

YTENTSSYY: the IC50 with HLA-B*15:01 was 23.1 µM; in the experiment with HLA-A*02:01 [3], at least 213 µM; with HLA-A*01:01 [4] it was 0.927 µM. Moreover, the Kd in the experiment with HLA-A*69:01 (setting [8]), in the experiment with HLA-B*57:01, with HLA-B*39:01 (setting [8]), with HLA-B*46:01 (setting [8]), with HLA-A*02:01 [5] and in the experiment with HLA-B*27:03 (setting [8]) was at least 20 µM in each case. Besides, the Kd in the experiment with HLA-B*51:01, with HLA-A*02:19 (setting [8]), with HLA-A*03:01 (setting [8]), in the experiment with HLA-C*08:02 (setting [8]), in the experiment with HLA-A*68:02 (setting [8]) and with HLA-A*02:11 was at least 20 µM throughout. The Kd is at least 20 µM in the experiment with HLA-A*02:16; at least 20 µM in the experiment with HLA-A*02:03 (setting [8]); at least 20 µM in the experiment with HLA-A*02:12 (setting [8]); 0.007 µM in the experiment with HLA-A*26:01 [6]; at least 20 µM with HLA-A*24:03 (setting [8]).

Values taken from the Immune Epitope Database (IEDB).
